{
  "source": "paper doi:10.64898/2025.12.13.693833",
  "about": "(bioRxiv, 2025)",
  "key": {"PP2A Aα subunit (human)": {"molecular_target": "PP2A Aα subunit (human) (UniProt P30153)", "sequence (P30153 whole entry)": "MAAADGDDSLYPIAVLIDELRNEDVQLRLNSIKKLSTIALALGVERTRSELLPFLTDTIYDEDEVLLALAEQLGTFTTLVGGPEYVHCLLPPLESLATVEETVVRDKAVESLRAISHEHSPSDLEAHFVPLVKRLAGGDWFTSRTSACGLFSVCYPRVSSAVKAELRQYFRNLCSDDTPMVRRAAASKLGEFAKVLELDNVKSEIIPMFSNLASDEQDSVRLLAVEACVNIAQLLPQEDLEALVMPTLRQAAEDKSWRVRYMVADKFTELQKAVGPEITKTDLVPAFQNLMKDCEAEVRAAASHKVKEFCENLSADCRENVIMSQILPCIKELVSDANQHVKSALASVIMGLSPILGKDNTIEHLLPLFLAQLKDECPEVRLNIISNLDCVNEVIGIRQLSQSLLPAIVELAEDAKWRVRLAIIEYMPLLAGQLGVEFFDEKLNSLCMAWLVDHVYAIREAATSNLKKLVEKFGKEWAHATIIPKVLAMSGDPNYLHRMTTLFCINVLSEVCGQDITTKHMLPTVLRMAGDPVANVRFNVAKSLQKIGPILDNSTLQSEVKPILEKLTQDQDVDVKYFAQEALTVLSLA", "assay": "MST"}, "PP2A Cα subunit [1]": {"molecular_target": "T1, PP2A Cα subunit (human, UniProt P67775 2-309)", "T1 sequence (P67775 2-309)": "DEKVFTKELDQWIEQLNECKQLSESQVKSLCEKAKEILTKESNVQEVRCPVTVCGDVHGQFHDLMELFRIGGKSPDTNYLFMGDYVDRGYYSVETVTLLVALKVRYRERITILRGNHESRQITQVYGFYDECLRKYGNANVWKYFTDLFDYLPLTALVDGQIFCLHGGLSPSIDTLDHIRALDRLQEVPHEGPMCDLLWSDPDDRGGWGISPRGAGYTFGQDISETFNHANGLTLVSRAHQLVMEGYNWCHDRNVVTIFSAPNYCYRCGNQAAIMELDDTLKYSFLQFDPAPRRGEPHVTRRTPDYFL", "assay": "BLI"}, "PP2A(B55α) holoenzyme [2]": {"molecular_target": "T2, PP2A(B55α) holoenzyme (human, UniProt P30153 1-589; P63151 1-447; P67775 2-309)", "T2 sequence (P30153 whole entry, chain 1 of 3)": "as the sequence (P30153 whole entry) above", "T2 sequence (P63151 whole entry, chain 2 of 3)": "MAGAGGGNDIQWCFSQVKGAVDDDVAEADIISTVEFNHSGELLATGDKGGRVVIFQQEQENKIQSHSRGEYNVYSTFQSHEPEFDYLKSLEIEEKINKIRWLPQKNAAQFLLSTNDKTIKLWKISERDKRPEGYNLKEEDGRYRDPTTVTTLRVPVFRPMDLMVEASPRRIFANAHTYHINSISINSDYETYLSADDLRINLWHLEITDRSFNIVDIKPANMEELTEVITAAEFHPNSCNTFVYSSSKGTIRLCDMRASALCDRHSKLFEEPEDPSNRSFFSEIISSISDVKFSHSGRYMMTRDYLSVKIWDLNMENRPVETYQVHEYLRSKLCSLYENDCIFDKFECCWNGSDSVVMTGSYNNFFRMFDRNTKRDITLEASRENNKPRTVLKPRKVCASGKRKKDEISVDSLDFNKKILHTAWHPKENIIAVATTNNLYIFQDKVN", "T2 sequence (P67775 2-309, chain 3 of 3)": "as the sequence (P67775 2-309) above", "assay": "BLI"}, "PP2A(B55α) holoenzyme [3]": {"molecular_target": "T2, PP2A(B55α) holoenzyme", "assay": "BLI", "remark": "listed apart in the source"}, "PP2A Cα subunit [4]": {"molecular_target": "T1, PP2A Cα subunit", "assay": "cryo-EM structure"}},
  "data": [
    {"molecule": "tag-free ENSA^S67D (from UniProt O43768 1-121) (natural protein)", "values": [
      {"measurement": "Kd", "setting": "PP2A Aα subunit (human)", "result": 800, "unit": "µM"}
    ]},
    {"molecule": "tag-free ENSA^WT (from UniProt O43768 1-121) (natural protein)", "values": [
      {"measurement": "Kd", "setting": "PP2A Aα subunit (human)", "result": 600, "unit": "µM"}
    ]},
    {"molecule": "GST-ENSA^S67D-His6 (natural protein, human, UniProt O43768 1-121, looked up) MSQKQEEENPAEETGEEKQDTQEKEGILPERAEEAKLKAKYPSLGQKPGGSDFLMKRLQKGQKYFDDGDYNMAKAKMKNKQLPSAGPDKNLVTGDHIPTPQDLPQRKSSLVTSKLAGGQVE", "values": [
      {"measurement": "binding result", "setting": "PP2A Cα subunit [1]", "result": "binds"},
      {"measurement": "Kd", "setting": "PP2A(B55α) holoenzyme [2]", "result": 0.66, "unit": "µM"}
    ]},
    {"molecule": "GST-ENSA^S67D R57A-His6 (natural protein, human, UniProt O43768 1-121, looked up) MSQKQEEENPAEETGEEKQDTQEKEGILPERAEEAKLKAKYPSLGQKPGGSDFLMKALQKGQKYFDDGDYNMAKAKMKNKQLPSAGPDKNLVTGDHIPTPQDLPQRKSSLVTSKLAGGQVE", "values": [
      {"measurement": "binding result", "setting": "PP2A(B55α) holoenzyme [3]", "result": "binds"}
    ]},
    {"molecule": "His6-TEV site-ENSA^S67D (natural protein, human, UniProt O43768 1-121, looked up) MSQKQEEENPAEETGEEKQDTQEKEGILPERAEEAKLKAKYPSLGQKPGGSDFLMKRLQKGQKYFDDGDYNMAKAKMKNKQLPSAGPDKNLVTGDHIPTPQDLPQRKSSLVTSKLAGGQVE", "values": [
      {"measurement": "binding result", "setting": "PP2A Cα subunit [4]", "result": "binds"}
    ]},
    {"molecule": "GST-ENSA^S67D K40A-His6 (natural protein, human, UniProt O43768 1-121, looked up) MSQKQEEENPAEETGEEKQDTQEKEGILPERAEEAKLKAAYPSLGQKPGGSDFLMKRLQKGQKYFDDGDYNMAKAKMKNKQLPSAGPDKNLVTGDHIPTPQDLPQRKSSLVTSKLAGGQVE", "values": [
      {"measurement": "binding result", "setting": "PP2A(B55α) holoenzyme [3]", "result": "binds"}
    ]},
    {"molecule": "GST-ENSA^WT-His6 (natural protein, human, UniProt O43768 1-121, looked up) MSQKQEEENPAEETGEEKQDTQEKEGILPERAEEAKLKAKYPSLGQKPGGSDFLMKRLQKGQKYFDSGDYNMAKAKMKNKQLPSAGPDKNLVTGDHIPTPQDLPQRKSSLVTSKLAGGQVE", "values": [
      {"measurement": "Kd", "setting": "PP2A(B55α) holoenzyme [2]", "result": 1.45, "unit": "µM"}
    ]},
    {"molecule": "GST-ENSA^S67D E30A-His6 (natural protein, human, UniProt O43768 1-121, looked up) MSQKQEEENPAEETGEEKQDTQEKEGILPARAEEAKLKAKYPSLGQKPGGSDFLMKRLQKGQKYFDDGDYNMAKAKMKNKQLPSAGPDKNLVTGDHIPTPQDLPQRKSSLVTSKLAGGQVE", "values": [
      {"measurement": "binding result", "setting": "PP2A(B55α) holoenzyme [3]", "result": "binds"}
    ]}
  ]
}
